# Source: paper PMC7360120
# Biological target: HA-ELKS1αB
substance,measurement,value
GST-Rab6B Q72L (from UniProt P61294 1-208) (natural protein),"fraction of synapses with mito-Rab6-tagged mitochondria in neurons co-expressing mito-Rab6BQL and HA-ELKS1αB, compared to inactive Rab6B (mito-Rab6BTN) or HA-ELKS1^∆955-971",2 fold
